Assay results as given in the nanobody polyreactivity screen of Harvey et al. (2022).

Assay: yeast display, Sf9 membrane polyspecificity reagent, FACS + sequencing; frameworks hold sequencing errors
In short: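 Galactose induction of a Saccharomyces cerevisiae BJ5465 synthetic nanobody display library ran 36–48 hours. The cells were then stained for 1 hour at 4 °C with 10% biotinylated, detergent-solubilized Sf9 membrane reagent, pulled down on streptavidin microbeads and FACS-sorted into low and high (top ~1%) gates on expression and reagent-binding fluorescence. Labels for polyreactivity follow the gate of origin.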

Which “polyreactivity (PSR sort gate)” value does the source give for “QVQLVESGGGLVQAGGSLRLSCAASGRTFYSNAMGWYRQAPGKERELVAAITFGGGSTYYADSVKGRFTISRDNAKNTVYLQMNSLKPEDTAVYYCAAEGYKYRFYYWGQGTQVTVSS” here?
Its value is “low polyreactivity”.

With “QVQLVESGGGLVQAGGSLRLSCAASGRTFYSNAMGWYRQAPGKERELVATISSSGGSTYYADSVKGRFTISRDNAKNTVYLQMNSLKPEDTAVYYCAADPSGDYWGQGTQVTVSS” as the sequence, how does the “polyreactivity (PSR sort gate)” value read?
The value was “low polyreactivity”.

With “QVQLVESGGGLVQAGGSLRLSCAASGRTFYSNAMGWYRQAPGKERELVATITLSGGSTDYADSVKGRFTISRDNAKNTVYLQMNSLKPEDTAVYYCNADTDVHLIMGYWGQGTQVTVSS” as the sequence, how does the “polyreactivity (PSR sort gate)” value read?
Its value is “low polyreactivity”.

For “QVQLVESGGGLVQAGGSLRLSCAASGRTFYSNTMGWYRQSPGKERELVAAIDWSGGRTYYADSVKGRFTISRDNAKNTVYLQMHSLKPEDTAVYYCNTVGYSLRLRTGGYWGQGTQVTVSS”, which “polyreactivity (PSR sort gate)” value is on record?
The value was “high polyreactivity”.

Which “polyreactivity (PSR sort gate)” value does the source give for “QVQLVESGGGLVQAGGSLRLSCAASGRTFYSYAKGWYRQAPGKERELVASITSTGSTYYADSVKGRFTISRDNAKNTVYLQMNSLKPEDTAVYYCAARRQPRYSQRSTYYYWGQGTQVTVSS” here?
Its value is “high polyreactivity”.

Which “polyreactivity (PSR sort gate)” value does the source give for “QVQLVESGGGLVQAGGSLRLSCAASGRTFYSYAMGWYRQAPGKERELVAAINSGGDTYYADSVKGRFTISRDNAKNTVYLQMNSLKPEDTAVYYCAADYYWEMDTWGQGTQVTVSS” here?
Its value is “low polyreactivity”.

With “QVQLVESGGGLVQAGGSLRLSCAASGRTFYSYAMGWYRQAPGKERELVAAISSGGTTYYADSVKGRFTISRDNAKNTVYLQMNSLKPEDTAVYYCATSRAWRYRSYYWGQGTQVTVSS” as the sequence, how does the “polyreactivity (PSR sort gate)” value read?
Its value is “high polyreactivity”.

Which “polyreactivity (PSR sort gate)” value does the source give for “QVQLVESGGGLVQAGGSLRLSCAASGRTFYSYAMGWYRQAPGKERELVAAISWNGGSTYYADSVKGRFTISRDNAKNTVYLQMNSLKPEDTAVYYCAAVPLRNRWPNSWPALDYWGQGTQVTVSS” here?
Its value is “high polyreactivity”.

For “QVQLVESGGGLVQAGGSLRLSCAASGRTFYSYAMGWYRQAPGKERELVATIRRGGRTNYADSVKGRFTISRDNAKNTVYLQMNSLKPEDTAVYYCAAEDYLSWVTSTYDYWGQGTQVAVSS”, which “polyreactivity (PSR sort gate)” value is on record?
Its value is “low polyreactivity”.

Which “polyreactivity (PSR sort gate)” value does the source give for “QVQLVESGGGLVQAGGSLRLSCAASGRTFYSYARGWYRQAPGKERELVAAINSGGDTYYADSVKGRFTISRDNAKNTVYLQMNSLKPEDTAVDYCAADIEVQYITLGVELPYDYWGQGTQVTVSS” here?
The value was “low polyreactivity”.

With “QVQLVESGGGLVQAGGSLRLSCAASGRTFYTNAMGWYRQAPGKERELVAAITRGGTTYYADSVKGRFTISRDNAKNTVYLQMNSLKPVDTAVYYCAADTESIVATDLIRKYDYWGQGTQVTVSS” as the sequence, how does the “polyreactivity (PSR sort gate)” value read?
The value was “low polyreactivity”.

Which “polyreactivity (PSR sort gate)” value does the source give for “QVQLVESGGGLVQAGGSLRLSCAASGRTFYTYAMGWYIQAPGKEREFVAAIRFSGGNTYYADSVKGRFTISRDNAKNTVYLQMKSLKPEDTAVYYCAARRLLYKYWTGGPYDYWGQGTQVTVSS” here?
Its value is “high polyreactivity”.

Which “polyreactivity (PSR sort gate)” value does the source give for “QVQLVESGGGLVQAGGSLRLSCAASGRTFYTYAMGWYRQAPGKERELVAAITYSGGRTSYADSVKGRFTISRDNAKNTVYLQMNSLKPEDTAVYYCAARTLGRRLDYGYWGQGTQVSVSS” here?
The value was “low polyreactivity”.

With “QVQLVESGGGLVQAGGSLRLSCAASGRTFYTYAMGWYRQAPGKERELVATITSGGSTYYGDSVKGRFTISRDNAKNTVYLQMNSLKPEDTAVYYCDVEVFVDYDYWGQGTQVTVSS” as the sequence, how does the “polyreactivity (PSR sort gate)” value read?
Its value is “high polyreactivity”.

For “QVQLVESGGGLVQAGGSLRLSCAASGRTFYVNAMGWYRQAPGKERELVAGISFSDGSTYYADSVKGRFTISRDNAKNTVYLQMNSLKPEDTAVYYCASVGAFDIYYGYGYWGQGTQVTVSS”, which “polyreactivity (PSR sort gate)” value is on record?
The value was “low polyreactivity”.

For “QVQLVESGGGLVQAGGSLRLSCAASGRTFYVYTMGWYRQAPGKERELVAAISSGGTTNYADSVKGRFTISRDNAKNTVYLQMNSLKPEDTAVYYCATERGYRYRGPLRVNYDYWGQGTQVTVSS”, which “polyreactivity (PSR sort gate)” value is on record?
The value was “low polyreactivity”.

With “QVQLVESGGGLVQAGGSLRLSCAASGRTFYWNAMGWYRQAPGKEREFVAAITNTAGYTYYADSVKGRFTISRDNAKNTVYLQMNSLKPEDTAVYYCAKSGNAGYRTYLRDYWGQGTQVTVSS” as the sequence, how does the “polyreactivity (PSR sort gate)” value read?
The value was “low polyreactivity”.

For “QVQLVESGGGLVQAGGSLRLSCAASGRTFYWYAMGWYRKAPGKERELVAAITSGGSTYYADSVKGRFTISRDNEKNTVYLQMNILKPEDTAVYYCGVDVDWWDGMDYWGQGTQVTVSS”, which “polyreactivity (PSR sort gate)” value is on record?
The value was “high polyreactivity”.

For “QVQLVESGGGLVQAGGSLRLSCAASGRTFYWYAMGWYRQAPGKERELVAAIRRSGGRTYYADSVKGRFTISRDNAKNTVYLQMNSLKPEDTAVYYCNVAYLRYPGPLDYWGQGTQVTVSS”, which “polyreactivity (PSR sort gate)” value is on record?
Its value is “high polyreactivity”.

For “QVQLVESGGGLVQAGGSLRLSCAASGRTFYWYVMGWYRQAPGKERELVAAITQTGSSTYYADSVKGRFTISRDNAKNTVYLQMNSLKPEDTAVYYCADRLSRNHYEVDYWGQGTQVTVSS”, which “polyreactivity (PSR sort gate)” value is on record?
Its value is “low polyreactivity”.

With “QVQLVESGGGLVQAGGSLRLSCAASGRTFYYAMGWYRPAPGKERELVAGITWSGGSTYYADSVKGRFTISRDNAKNTVYLQMNSLKPEDTAVYYCNAVYRYRTYRYDYWGQGTQVTVSS” as the sequence, how does the “polyreactivity (PSR sort gate)” value read?
Its value is “high polyreactivity”.

For “QVQLVESGGGLVQAGGSLRLSCAASGRTFYYNAMGWYRQAHGKERQLVADINWSGVRTYYADSVKGRFTISRDNAKNTVYLQMNSLKPEDTAVYYCAARVGPYSLAVDGFKHGYWGQGTQVTVSS”, which “polyreactivity (PSR sort gate)” value is on record?
The value was “low polyreactivity”.

Which “polyreactivity (PSR sort gate)” value does the source give for “QVQLVESGGGLVQAGGSLRLSCAASGRTFYYNAMGWYRQAPGKERELVAAISASSGRTYYADSVKGRFTISRDNAKNTVYFPMNSLKPEDTAVYYCANRYGGDYTRGYGYWGQGTQVTVSS” here?
Its value is “high polyreactivity”.

For “QVQLVESGGGLVQAGGSLRLSCAASGRTFYYNAMGWYRQAPGKERELVATISWRGGNTYYADSVKGRFTISRDNAKNTVYLQMNSLKPEDTAVYYCNARTVGWKALTGKYDYWGQGTQVTVSS”, which “polyreactivity (PSR sort gate)” value is on record?
The value was “high polyreactivity”.

Which “polyreactivity (PSR sort gate)” value does the source give for “QVQLVESGGGLVQAGGSLRLSCAASGRTFYYNAMVWYRQAPGKERELVAAITWSGGRTFYADSVKGRFTISRDNAKNTVYLQMNSLKPEDTAVYYCNAYPVFRSYDYWGQGTQVTVSS” here?
The value was “high polyreactivity”.

For “QVQLVESGGGLVQAGGSLRLSCAASGRTFYYNTMGWYRQAPGKERELVATISRIGGSTYYADSVKGRFTISRDNAKNTVYLQMNSLKPEDTAVYYCAAYVAAYPTGYDYWGQGTQVTVSS”, which “polyreactivity (PSR sort gate)” value is on record?
The value was “high polyreactivity”.

With “QVQLVESGGGLVQAGGSLRLSCAASGRTFYYYAMGWSRPAPGKERELVAGINSGGSTNYADSVKGRFTISRDNAKNTVYLQMNRLKPEDTAVYYCAVEDLGSEGWGWYKEMDYWGQGTQVTVSS” as the sequence, how does the “polyreactivity (PSR sort gate)” value read?
The value was “low polyreactivity”.

For “QVQLVESGGGLVQAGGSLRLSCAASGRTFYYYAMGWYRLAPGKERELVAAISNRGGSTYYADSVKGRFTISRDNAKNTVYLQMNCLKPEDTAVYYCARRYSYLYTYGSWGQGPQVTVSS”, which “polyreactivity (PSR sort gate)” value is on record?
The value was “high polyreactivity”.

Which “polyreactivity (PSR sort gate)” value does the source give for “QVQLVESGGGLVQAGGSLRLSCAASGRTFYYYAMGWYRPAPGKERELVAAITSGGRTYYADSVKGRFTISRDNAKNRVYLQMQSLKPEDTAVYYCAARDFFRYSLGYDYWGQGTQVTVSS” here?
The value was “high polyreactivity”.

Which “polyreactivity (PSR sort gate)” value does the source give for “QVQLVESGGGLVQAGGSLRLSCAASGRTFYYYAMGWYRQAPGKEREFVAAITYRGDSTNYADSVKGRFTISRDNAKNTVYLQMNSLKPEDTAVYYCAADSPYQIYYYWGQGTQVTVSS” here?
The value was “low polyreactivity”.

With “QVQLVESGGGLVQAGGSLRLSCAASGRTFYYYAMGWYRQAPGKEREFVASISYSGARTYYADSVKGRFTISRDNAKNTVYLQVNSLKPEDTAVYYCDAGYPLGGDYWGQGTQVTVSS” as the sequence, how does the “polyreactivity (PSR sort gate)” value read?
The value was “high polyreactivity”.

For “QVQLVESGGGLVQAGGSLRLSCAASGRTFYYYAMGWYRQAPGKERELVAAINWSSGSTYYADSVKGRFTISRDNAKNTVYLQMNSLKPEDTAVYYCNAESRWYIIPYGDFDYWGQGTQVTVSS”, which “polyreactivity (PSR sort gate)” value is on record?
Its value is “low polyreactivity”.
